Earlier results, collected in article PMC4245983 (Biochemistry, 2014).
Numbering of substitutions follows the chain as printed. Names may count otherwise. “Also recorded” adds a separate entry of the source. Each block holds one molecule with its values, some of them ahead of it.

Legend:
[1] = system: Hsc70 NBD; settings: NBD with interdomain linker; ref 32 (b59 prints ref 23)
[2] = system: HscA; settings: 25 °C; background statement, no reference given
[3] = system: IscU
[4] = system: HscA; settings: compared to DnaK
[5] = target: WT HscA; settings: read-out: Kd^ATP of WT HscA
[6] = system: HscA; settings: read-out: Km of WT HscA (ATP)
[7] = system: [2Fe-2S] cluster transfer

B1: auxilin: J-protein of Hsc70 (protein, UniProt Q27974 1-910, looked up)
Auxilin: MDSSGASSPDMEPSYGGGLFDMVKGGAGRLFSNLKDNLKDTLKDTSSRVIQSVTSYTKGDLDFTYVTSRIIVMSFPLDSVDIGFRNQVDDIRSFLDSRHLDHYTVYNLSPKSYRTAKFHSRVSECSWPIRQAPSLHNLFAVCRNMYNWLLQNPKNVCVVHCLDGRAASSILVGAMFIFCNLYSTPGPAVRLLYAKRPGIGLSPSHRRYLGYMCDLLADKPYRPHFKPLTIKSITVSPVPFFNKQRNGCRPYCDVLIGETKIYTTCADFERMKEYRVQDGKIFIPLSITVQGDVVVSMYHLRSTIGSRLQAKVTNTQIFQLQFHTGFIPLDTTVLKFTKPELDACDVPEKYPQLFQVTLDVELQPHDKVMELTPPWEHYCTKDVNPSILFSSHQEHQDTLVLGGQAPIDIPPDNPRHFGQGGFFSTLCWQDQKSEKSFCEEDHAALVNQESEQSDDELLTLSSPHGNANGDKPHAARKPSKKQQEPAAPAPPEDVDLLGLEGSAVSKNFSSPAAPPSNSELLSDLFGGGGAAGPVQSGQSGVDDVFHPSGPTSTQSTPRRSATSTSASPTLRVGEGATFDPFGAPSKPSGQDLLGSFLNTASASSDPFLQPTRSPSPTVHASSTPAVNIQPDVSGAWDWHTKPGGFGMGSKSAATSPTGSSHGTPTHQNKPQTLDPFADLGTLGGSSFASKPSTPTGLGGGFPPLSSPQKASPQPMGGGWQQGGGYNWQQTQSKPQSSMPHSSPQNRPNYNVSFSSMPGGQNERGKAAANLEGKQKAADFEDLLSGQGFNAHKDKKGPRTIAEMRKEEMAKEMDPEKLKILEWIEGKERNIRALLSTMHTVLWAGETKWKPVGMADLVTPEQVKKVYRKAVLVVHPDKATGQPYEQYAKMIFMELNDAWSEFENQGQKPLY
effect on ATPase activity of Hsc70 NBD variants [1]: stimulated by its J-protein (auxilin) if and only if the interdomain linker was present; also recorded: could be stimulated by its J-protein, auxilin

preferential binding to conformational state of IscU [3]: binds preferentially to the D-state | binding affinity for ATP, fold weaker than DnaK [4]: 10^3 fold | Kd [5]: 26 ± 7 µM
B2: WT HscA: specialized Hsp70-type chaperone (66 kDa) of E. coli (protein, UniProt P0A6Z1 1-616, looked up)
chain: MALLQISEPGLSAAPHQRRLAAGIDLGTTNSLVATVRSGQAETLADHEGRHLLPSVVHYQQQGHSVGYDARTNAALDTANTISSVKRLMGRSLADIQQRYPHLPYQFQASENGLPMIETAAGLLNPVRVSADILKALAARATEALAGELDGVVITVPAYFDDAQRQGTKDAARLAGLHVLRLLNEPTAAAIAYGLDSGQEGVIAVYDLGGGTFDISILRLSRGVFEVLATGGDSALGGDDFDHLLADYIREQAGIPDRSDNRVQRELLDAAIAAKIALSDADSVTVNVAGWQGEISREQFNELIAPLVKRTLLACRRALKDAGVEADEVLEVVMVGGSTRVPLVRERVGEFFGRPPLTSIDPDKVVAIGAAIQADILVGNKPDSEMLLLDVIPLSLGLETMGGLVEKVIPRNTTIPVARAQDFTTFKDGQTAMSIHVMQGERELVQDCRSLARFALRGIPALPAGGAHIRVTFQVDADGLLSVTAMEKSTGVEASIQVKPSYGLTDSEIASMIKDSMSYAEQDVKARMLAEQKVEAARVLESLHGALAADAALLSAAERQVIDDAAAHLSEVAQGDDVDAIEQAIKNVDKQTQDFAARRMDQSVRRALKGHSVDEV
modifications: full-length
intrinsic ATPase activity [2]: 0.02 min^–1 | rate of ADP dissociation, fold higher than DnaK [4]: > 10^3 fold | Km [6]: 12.6 µM

effect of ATPase deficient mutant on [2Fe-2S] cluster transfer [7]: abolishes [2Fe-2S] cluster transfer
B3: HscA T212V (protein, UniProt P0A6Z1 1-616, looked up, variant T212V)
Chaperone protein HscA: B2 chain with T212V
